In publication PMC9482650, “Quantitative fragmentomics allow affinity mapping of interactomes” (Nature Communications, 2022):

B1: CAPN6, Q9Y6Q1 (peptide)
chain: VISSDDLTEL
B2: CD226, Q15762 (peptide)
chain: TFSRRPKTRV

The binders below were run against Inadl_2, Q8NI35 (assay: holdup assay). Conditions: plain residues with an end cap or a label only (N-terminal biotin on a linker: ado-ado).
Set-up: key: below the threshold = too weak to quantify, mostly under pKd 3.1 to 4

Chain of Inadl_2, Q8NI35 (Q8NI35 238-335): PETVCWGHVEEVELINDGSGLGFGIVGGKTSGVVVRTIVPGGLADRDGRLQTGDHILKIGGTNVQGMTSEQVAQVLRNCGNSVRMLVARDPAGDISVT

Question: Which pKd does the source give for B1 here?
Answer: below the threshold

Question: Which pKd does the source give for B2 here?
Answer: below the threshold

The binders below were run against GRIP2_5, Q9C0E4 (assay: holdup assay). Conditions: plain residues with an end cap or a label only (N-terminal biotin on a linker: ado-ado).
Chain of GRIP2_5, Q9C0E4 (Q9C0E4 544-642): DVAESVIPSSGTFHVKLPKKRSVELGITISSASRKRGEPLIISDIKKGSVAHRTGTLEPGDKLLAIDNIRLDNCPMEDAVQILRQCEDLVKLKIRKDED
Set-up: key: below the threshold = too weak to quantify, mostly under pKd 3.1 to 4

Question: For B1, which pKd is on record?
Answer: below the threshold

Question: How did the pKd turn out when B2 was run?
Answer: below the threshold

These binders were tested against T1, MPP2, Q14168 (assay: holdup assay). Conditions: plain residues with an end cap or a label only (N-terminal biotin on a linker: ado-ado).
T1 sequence (Q14168 180-250, limits assumed, looked up): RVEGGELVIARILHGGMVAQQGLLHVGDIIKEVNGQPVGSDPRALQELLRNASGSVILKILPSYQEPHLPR
Set-up: key: below the threshold = too weak to quantify, mostly under pKd 3.1 to 4

Question: How did the pKd turn out when B1 was run?
Answer: below the threshold

Question: For B2, which pKd is on record?
Answer: below the threshold

What follows are binders tested against NOS1, P29475 (assay: holdup assay). Conditions: plain residues with an end cap or a label only (N-terminal biotin on a linker: ado-ado).
Chain of NOS1, P29475 (P29475 9-101): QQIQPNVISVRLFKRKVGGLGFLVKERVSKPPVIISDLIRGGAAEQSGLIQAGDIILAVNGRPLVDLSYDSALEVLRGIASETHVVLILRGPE
Set-up: key: below the threshold = too weak to quantify, mostly under pKd 3.1 to 4

Question: B1 was tested. Which pKd did it give?
Answer: below the threshold

Question: With B2 as the binder, how does the pKd read?
Answer: 4.17

Each binder was assayed against PARD3_3, Q8TEW0 (assay: holdup assay). Conditions: plain residues with an end cap or a label only (N-terminal biotin on a linker: ado-ado).
Chain of PARD3_3, Q8TEW0 (Q8TEW0 582-685): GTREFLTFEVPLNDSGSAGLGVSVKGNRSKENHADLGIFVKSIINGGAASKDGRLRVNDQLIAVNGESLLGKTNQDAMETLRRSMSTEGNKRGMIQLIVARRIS
Set-up: key: below the threshold = too weak to quantify, mostly under pKd 3.1 to 4

Question: For B1, which pKd is on record?
Answer: 3.84

Question: For B2, which pKd is on record?
Answer: below the threshold

What follows are binders tested against IL16_4, Q14005 (assay: holdup assay). Conditions: plain residues with an end cap or a label only (N-terminal biotin on a linker: ado-ado).
Chain of IL16_4, Q14005 (Q14005 1229-1329): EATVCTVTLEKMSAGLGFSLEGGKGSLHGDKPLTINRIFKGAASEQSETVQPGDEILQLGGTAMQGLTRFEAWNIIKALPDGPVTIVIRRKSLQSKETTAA
Set-up: key: below the threshold = too weak to quantify, mostly under pKd 3.1 to 4

Question: For B1, which pKd is on record?
Answer: 3.7

Question: B2 was tested. Which pKd did it give?
Answer: below the threshold

The binders below were run against MAGI2_2, Q86UL8 (assay: holdup assay). Conditions: plain residues with an end cap or a label only (N-terminal biotin on a linker: ado-ado).
Chain of MAGI2_2, Q86UL8 (Q86UL8 410-522): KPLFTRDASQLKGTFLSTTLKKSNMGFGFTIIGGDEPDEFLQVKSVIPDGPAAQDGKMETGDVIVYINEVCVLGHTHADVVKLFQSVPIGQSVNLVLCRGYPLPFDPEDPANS
Set-up: key: below the threshold = too weak to quantify, mostly under pKd 3.1 to 4

Question: With B1 as the binder, how does the pKd read?
Answer: below the threshold

Question: How did the pKd turn out when B2 was run?
Answer: 5.31

What follows are binders tested against FRMPD4, Q14CM0 (assay: holdup assay). Conditions: plain residues with an end cap or a label only (N-terminal biotin on a linker: ado-ado).
Chain of FRMPD4, Q14CM0 (Q14CM0 67-160): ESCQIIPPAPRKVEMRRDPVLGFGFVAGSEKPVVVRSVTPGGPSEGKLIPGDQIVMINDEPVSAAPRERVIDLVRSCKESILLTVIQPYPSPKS
Set-up: key: below the threshold = too weak to quantify, mostly under pKd 3.1 to 4

Question: Which pKd does the source give for B1 here?
Answer: 4.73

Question: For B2, which pKd is on record?
Answer: below the threshold

The binders below were run against T2, LIN7B, Q9HAP6 (assay: holdup assay). Conditions: plain residues with an end cap or a label only (N-terminal biotin on a linker: ado-ado).
T2 sequence (Q9HAP6 88-185, limits assumed, looked up): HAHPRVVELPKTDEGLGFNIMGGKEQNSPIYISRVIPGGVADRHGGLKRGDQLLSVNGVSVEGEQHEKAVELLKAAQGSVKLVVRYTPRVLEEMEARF
Set-up: key: below the threshold = too weak to quantify, mostly under pKd 3.1 to 4

Question: With B1 as the binder, how does the pKd read?
Answer: 3.56

Question: With B2 as the binder, how does the pKd read?
Answer: below the threshold

What follows are binders tested against T3, RADIL, Q96JH8 (assay: holdup assay). Conditions: plain residues with an end cap or a label only (N-terminal biotin on a linker: ado-ado).
T3 sequence (Q96JH8 971-1071, limits assumed, looked up): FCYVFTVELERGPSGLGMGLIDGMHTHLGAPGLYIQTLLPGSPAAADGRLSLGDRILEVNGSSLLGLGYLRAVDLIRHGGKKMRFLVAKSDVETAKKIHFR
Set-up: key: below the threshold = too weak to quantify, mostly under pKd 3.1 to 4

Question: B1 was tested. Which pKd did it give?
Answer: below the threshold

Question: How did the pKd turn out when B2 was run?
Answer: 3.57

What follows are binders tested against MAST2, Q6P0Q8 (assay: holdup assay). Conditions: plain residues with an end cap or a label only (N-terminal biotin on a linker: ado-ado).
Chain of MAST2, Q6P0Q8 (Q6P0Q8 1099-1202): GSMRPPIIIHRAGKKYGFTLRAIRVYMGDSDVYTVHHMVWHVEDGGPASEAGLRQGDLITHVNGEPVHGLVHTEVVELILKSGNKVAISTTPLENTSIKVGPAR
Set-up: key: below the threshold = too weak to quantify, mostly under pKd 3.1 to 4

Question: Which pKd does the source give for B1 here?
Answer: 5.67

Question: B2 was tested. Which pKd did it give?
Answer: 4.1

The binders below were run against IL16_3, Q14005 (assay: holdup assay). Conditions: plain residues with an end cap or a label only (N-terminal biotin on a linker: ado-ado).
Chain of IL16_3, Q14005 (Q14005 1107-1207): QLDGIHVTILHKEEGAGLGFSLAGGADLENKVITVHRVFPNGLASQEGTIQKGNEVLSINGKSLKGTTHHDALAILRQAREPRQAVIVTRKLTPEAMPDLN
Set-up: key: below the threshold = too weak to quantify, mostly under pKd 3.1 to 4

Question: Which pKd does the source give for B1 here?
Answer: below the threshold

Question: How did the pKd turn out when B2 was run?
Answer: below the threshold

The binders below were run against LAP2, Q96RT1 (assay: holdup assay). Conditions: plain residues with an end cap or a label only (N-terminal biotin on a linker: ado-ado).
Chain of LAP2, Q96RT1 (Q96RT1 other isoform, or with tags, fused parts or gaps): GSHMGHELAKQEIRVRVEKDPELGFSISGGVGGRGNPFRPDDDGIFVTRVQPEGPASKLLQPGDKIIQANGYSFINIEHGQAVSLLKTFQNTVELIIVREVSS
Set-up: key: below the threshold = too weak to quantify, mostly under pKd 3.1 to 4

Question: With B1 as the binder, how does the pKd read?
Answer: below the threshold

Question: For B2, which pKd is on record?
Answer: below the threshold

Each binder was assayed against T4, TIAM2, Q8IVF5 (assay: holdup assay). Conditions: plain residues with an end cap or a label only (N-terminal biotin on a linker: ado-ado).
T4 sequence (Q8IVF5 885-986, limits assumed, looked up): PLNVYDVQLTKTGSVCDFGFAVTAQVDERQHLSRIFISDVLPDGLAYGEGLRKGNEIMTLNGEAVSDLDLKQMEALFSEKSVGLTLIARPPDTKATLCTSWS
Set-up: key: below the threshold = too weak to quantify, mostly under pKd 3.1 to 4

Question: B1 was tested. Which pKd did it give?
Answer: 3.96

Question: B2 was tested. Which pKd did it give?
Answer: below the threshold

These binders were tested against T5, ARHGEF11, O15085 (assay: holdup assay). Conditions: plain residues with an end cap or a label only (N-terminal biotin on a linker: ado-ado).
T5 sequence (O15085 42-136, limits assumed, looked up): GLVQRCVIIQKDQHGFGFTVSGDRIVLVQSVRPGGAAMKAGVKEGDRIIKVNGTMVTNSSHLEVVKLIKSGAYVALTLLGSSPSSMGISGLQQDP
Set-up: key: below the threshold = too weak to quantify, mostly under pKd 3.1 to 4

Question: For B1, which pKd is on record?
Answer: 4.45

Question: Which pKd does the source give for B2 here?
Answer: 4.06

The binders below were run against T6, LNX2_2, Q8N448 (assay: holdup assay). Conditions: plain residues with an end cap or a label only (N-terminal biotin on a linker: ado-ado).
T6 sequence (Q8N448 334-432, limits assumed, looked up): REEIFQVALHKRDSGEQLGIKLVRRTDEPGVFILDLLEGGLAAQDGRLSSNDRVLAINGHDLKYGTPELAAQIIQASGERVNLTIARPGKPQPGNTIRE
Set-up: key: below the threshold = too weak to quantify, mostly under pKd 3.1 to 4

Question: B1 was tested. Which pKd did it give?
Answer: below the threshold

Question: B2 was tested. Which pKd did it give?
Answer: below the threshold

These binders were tested against T7, GRIP1_5, Q9Y3R0 (assay: holdup assay). Conditions: plain residues with an end cap or a label only (N-terminal biotin on a linker: ado-ado).
T7 sequence (Q9Y3R0 568-668, limits assumed, looked up): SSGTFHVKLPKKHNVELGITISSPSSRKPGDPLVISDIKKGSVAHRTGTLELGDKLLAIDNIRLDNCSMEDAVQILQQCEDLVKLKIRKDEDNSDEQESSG
Set-up: key: below the threshold = too weak to quantify, mostly under pKd 3.1 to 4

Question: With B1 as the binder, how does the pKd read?
Answer: below the threshold

Question: With B2 as the binder, how does the pKd read?
Answer: below the threshold

These binders were tested against T8, DLG3_3, Q92796 (assay: holdup assay). Conditions: plain residues with an end cap or a label only (N-terminal biotin on a linker: ado-ado).
T8 sequence (Q92796 374-475, limits assumed, looked up): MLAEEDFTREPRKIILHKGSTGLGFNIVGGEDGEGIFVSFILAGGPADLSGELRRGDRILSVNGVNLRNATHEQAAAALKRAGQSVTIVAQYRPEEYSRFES
Set-up: key: below the threshold = too weak to quantify, mostly under pKd 3.1 to 4

Question: How did the pKd turn out when B1 was run?
Answer: below the threshold

Question: With B2 as the binder, how does the pKd read?
Answer: 3.81

These binders were tested against SNX27, Q96L92 (assay: holdup assay). Conditions: plain residues with an end cap or a label only (N-terminal biotin on a linker: ado-ado).
Set-up: key: below the threshold = too weak to quantify, mostly under pKd 3.1 to 4

Question: B1 was tested. Which pKd did it give?
Answer: 4.17

Question: For B2, which pKd is on record?
Answer: 3.88

What follows are binders tested against GIPC2, Q8TF65 (assay: holdup assay). Conditions: plain residues with an end cap or a label only (N-terminal biotin on a linker: ado-ado).
Chain of GIPC2, Q8TF65 (Q8TF65 112-203): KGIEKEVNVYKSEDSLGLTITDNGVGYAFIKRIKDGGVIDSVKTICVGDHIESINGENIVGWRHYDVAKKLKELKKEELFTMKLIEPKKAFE
Set-up: key: below the threshold = too weak to quantify, mostly under pKd 3.1 to 4

Question: How did the pKd turn out when B1 was run?
Answer: below the threshold

Question: For B2, which pKd is on record?
Answer: below the threshold

What follows are binders tested against T9, LNX2_3, Q8N448 (assay: holdup assay). Conditions: plain residues with an end cap or a label only (N-terminal biotin on a linker: ado-ado).
T9 sequence (Q8N448 463-564, limits assumed, looked up): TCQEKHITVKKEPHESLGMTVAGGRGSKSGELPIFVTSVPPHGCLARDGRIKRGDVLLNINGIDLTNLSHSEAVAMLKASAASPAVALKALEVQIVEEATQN
Set-up: key: below the threshold = too weak to quantify, mostly under pKd 3.1 to 4

Question: Which pKd does the source give for B1 here?
Answer: below the threshold

Question: Which pKd does the source give for B2 here?
Answer: 3.61

The binders below were run against T10, DVL3, Q92997 (assay: holdup assay). Conditions: plain residues with an end cap or a label only (N-terminal biotin on a linker: ado-ado).
T10 sequence (Q92997 244-331, limits assumed, looked up): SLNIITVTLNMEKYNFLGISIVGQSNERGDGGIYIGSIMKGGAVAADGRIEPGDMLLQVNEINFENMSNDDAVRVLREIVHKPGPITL
Set-up: key: below the threshold = too weak to quantify, mostly under pKd 3.1 to 4

Question: B1 was tested. Which pKd did it give?
Answer: below the threshold

Question: With B2 as the binder, how does the pKd read?
Answer: below the threshold

These binders were tested against TJP2_1, Q9UDY2 (assay: holdup assay). Conditions: plain residues with an end cap or a label only (N-terminal biotin on a linker: ado-ado).
Chain of TJP2_1, Q9UDY2 (Q9UDY2 24-128): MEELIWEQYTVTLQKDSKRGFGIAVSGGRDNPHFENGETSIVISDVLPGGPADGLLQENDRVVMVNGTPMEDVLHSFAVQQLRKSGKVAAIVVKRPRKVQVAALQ
Set-up: key: below the threshold = too weak to quantify, mostly under pKd 3.1 to 4

Question: For B1, which pKd is on record?
Answer: below the threshold

Question: For B2, which pKd is on record?
Answer: 4.25

These binders were tested against DLG1_2, Q12959 (assay: holdup assay). Conditions: plain residues with an end cap or a label only (N-terminal biotin on a linker: ado-ado).
Chain of DLG1_2, Q12959 (Q12959 314-412): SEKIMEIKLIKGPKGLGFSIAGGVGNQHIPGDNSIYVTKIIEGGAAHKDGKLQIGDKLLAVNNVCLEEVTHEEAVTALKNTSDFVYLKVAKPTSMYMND
Set-up: key: below the threshold = too weak to quantify, mostly under pKd 3.1 to 4

Question: With B1 as the binder, how does the pKd read?
Answer: below the threshold

Question: Which pKd does the source give for B2 here?
Answer: below the threshold

The binders below were run against T11, GRIP1_4, Q9Y3R0 (assay: holdup assay). Conditions: plain residues with an end cap or a label only (N-terminal biotin on a linker: ado-ado).
T11 sequence (Q9Y3R0 467-571, limits assumed, looked up): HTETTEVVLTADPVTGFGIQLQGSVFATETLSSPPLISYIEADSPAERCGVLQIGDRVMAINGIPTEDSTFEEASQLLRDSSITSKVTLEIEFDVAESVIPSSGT
Set-up: key: below the threshold = too weak to quantify, mostly under pKd 3.1 to 4

Question: How did the pKd turn out when B1 was run?
Answer: below the threshold

Question: Which pKd does the source give for B2 here?
Answer: below the threshold

These binders were tested against T12, NHERF3_1, Q5T2W1 (assay: holdup assay). Conditions: plain residues with an end cap or a label only (N-terminal biotin on a linker: ado-ado).
T12 sequence (Q5T2W1 4-100, limits assumed, looked up): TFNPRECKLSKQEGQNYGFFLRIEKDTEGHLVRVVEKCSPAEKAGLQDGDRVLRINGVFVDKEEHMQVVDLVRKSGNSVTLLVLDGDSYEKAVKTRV
Set-up: key: below the threshold = too weak to quantify, mostly under pKd 3.1 to 4

Question: For B1, which pKd is on record?
Answer: 3.67

Question: B2 was tested. Which pKd did it give?
Answer: below the threshold
